Source: US20100272723A1 (Xencor, published 2010)

T1: human CD19 (human, UniProt P15391 20-556)
T1 construct: also called B-cell surface antigen B4; B-cell antigen CD19
T1 sequence: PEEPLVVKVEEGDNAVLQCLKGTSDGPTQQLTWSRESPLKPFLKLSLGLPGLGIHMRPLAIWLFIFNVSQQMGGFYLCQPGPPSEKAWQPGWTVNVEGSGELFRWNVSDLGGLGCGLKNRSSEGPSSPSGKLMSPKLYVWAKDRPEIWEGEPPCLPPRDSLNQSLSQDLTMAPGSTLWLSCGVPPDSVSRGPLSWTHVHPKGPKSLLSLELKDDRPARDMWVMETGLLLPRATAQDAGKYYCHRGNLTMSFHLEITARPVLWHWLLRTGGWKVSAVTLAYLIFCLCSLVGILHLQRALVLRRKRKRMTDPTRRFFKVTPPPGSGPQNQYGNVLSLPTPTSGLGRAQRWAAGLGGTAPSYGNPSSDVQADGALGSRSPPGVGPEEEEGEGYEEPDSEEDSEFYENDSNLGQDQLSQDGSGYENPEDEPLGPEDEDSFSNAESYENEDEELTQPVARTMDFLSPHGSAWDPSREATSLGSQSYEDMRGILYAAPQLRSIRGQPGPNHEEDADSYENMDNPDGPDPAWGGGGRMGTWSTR

B1: H1.191 / L1.155 (antibody, V domains shown)
VH: EVQLVESGGGLVKPGGSLKLSCAASGYTFTSYVMHWVRQAPGKGLEWIGYINPYNDGTEYNEKFQGRVTISSDKSISTAYMELSSLRSEDTAMYYCARGTYYYGTRVFDYWGQGTLVTVSS
VL: DIVMTQSPATLSLSPGERATLSCRSSKSLQNVNGNTYLYWFQQKPGQSPQLLIYRMSNLNSGVPDRFSGSGSGTEFTLTISSLEPEDFAVYYCMQHLEYPITFGAGTKLEIK
notes: vs H1L1 (Kabat): VH K58E/S100cT; VL L27cQ/S27eV/A55N/F96I; also called 4G7 H1.191_L1.155
B2: H1.191 / L1.160 (antibody, V domains shown)
VH: EVQLVESGGGLVKPGGSLKLSCAASGYTFTSYVMHWVRQAPGKGLEWIGYINPYNDGTEYNEKFQGRVTISSDKSISTAYMELSSLRSEDTAMYYCARGTYYYGTRVFDYWGQGTLVTVSS
VL: DIVMTQSPATLSLSPGERATLSCRSSKSLQNVNANTYLYWFQQKPGQSPQLLIYRMSNLNSGVPDRFSGSGSGTEFTLTISSLEPEDFAVYYCMQHLEYPITFGAGTKLEIK
notes: vs H1L1 (Kabat): VH K58E/S100cT; VL L27cQ/S27eV/G29A/A55N/F96I; also called 4G7 H1.191_L1.160
B3: H1.192 / L1.152 (antibody, V domains shown)
VH: EVQLVESGGGLVKPGGSLKLSCAASGYTFTSYVMHWVRQAPGKGLEWIGYINPYNDGPKYNEKFQGRVTISSDKSISTAYMELSSLRSEDTAMYYCARGTYYYGTRVFDYWGQGTLVTVSS
VL: DIVMTQSPATLSLSPGERATLSCRSSKSLQNVNGNTYLYWFQQKPGQSPQLLIYRMSNLASGVPDRFSGSGSGTEFTLTISSLEPEDFAVYYCMQHLEYPNTFGAGTKLEIK
notes: vs H1L1 (Kabat): VH T57P/S100cT; VL L27cQ/S27eV/F96N; also called 4G7 H1.192_L1.152
B4: H1.196 / L1 (antibody, V domains shown)
VH: EVQLVESGGGLVKPGGSLKLSCAASGYTFTSYVMHWVRQAPGKGLEWIGYINPYNDGPKYNEKFQGRVTISSDKSISTAYMELSSLRSEDTAMYYCARGTYYYGTSVFDYWGQGTLVTVSS
VL: DIVMTQSPATLSLSPGERATLSCRSSKSLLNSNGNTYLYWFQQKPGQSPQLLIYRMSNLASGVPDRFSGSGSGTEFTLTISSLEPEDFAVYYCMQHLEYPFTFGAGTKLEIK
notes: vs H1L1 (Kabat): VH T57P/S100cT/R100dS; also called 4G7 H1.196_L1
B5: H1.196 / L1.152 (antibody, V domains shown)
VH: EVQLVESGGGLVKPGGSLKLSCAASGYTFTSYVMHWVRQAPGKGLEWIGYINPYNDGPKYNEKFQGRVTISSDKSISTAYMELSSLRSEDTAMYYCARGTYYYGTSVFDYWGQGTLVTVSS
VL: DIVMTQSPATLSLSPGERATLSCRSSKSLQNVNGNTYLYWFQQKPGQSPQLLIYRMSNLASGVPDRFSGSGSGTEFTLTISSLEPEDFAVYYCMQHLEYPNTFGAGTKLEIK
notes: vs H1L1 (Kabat): VH T57P/S100cT/R100dS; VL L27cQ/S27eV/F96N; also called 4G7 H1.196_L1.152
B6: H1.199 / L1.148 (antibody, V domains shown)
VH: EVQLVESGGGLVKPGGSLKLSCAASGYTFTSYVMHWVRQAPGKGLEWIGYINPYNDGPEYNEKFQGRVTISSDKSISTAYMELSSLRSEDTAMYYCARGTYYYGTRVFDYWGQGTLVTVSS
VL: DIVMTQSPATLSLSPGERATLSCRSSKSLQNSNGNTYLYWFQQKPGQSPQLLIYRMSNLNSGVPDRFSGSGSGTEFTLTISSLEPEDFAVYYCMQHLEYPNTFGAGTKLEIK
notes: vs H1L1 (Kabat): VH T57P/K58E/S100cT; VL L27cQ/A55N/F96N; also called 4G7 H1.199_L1.148
B7: H1.192 / L1.144 (antibody, V domains shown)
VH: EVQLVESGGGLVKPGGSLKLSCAASGYTFTSYVMHWVRQAPGKGLEWIGYINPYNDGPKYNEKFQGRVTISSDKSISTAYMELSSLRSEDTAMYYCARGTYYYGTRVFDYWGQGTLVTVSS
VL: DIVMTQSPATLSLSPGERATLSCRSSKSLQNSNGNTYLYWFQQKPGQSPQLLIYRMSNLASGVPDRFSGSGSGTEFTLTISSLEPEDFAVYYCMQHLEYPNTFGAGTKLEIK
notes: vs H1L1 (Kabat): VH T57P/S100cT; VL L27cQ/F96N; also called 4G7 H1.192_L1.144
B8: H1.199 / L1.146 (antibody, V domains shown)
VH: EVQLVESGGGLVKPGGSLKLSCAASGYTFTSYVMHWVRQAPGKGLEWIGYINPYNDGPEYNEKFQGRVTISSDKSISTAYMELSSLRSEDTAMYYCARGTYYYGTRVFDYWGQGTLVTVSS
VL: DIVMTQSPATLSLSPGERATLSCRSSKSLLNVNGNTYLYWFQQKPGQSPQLLIYRMSNLNSGVPDRFSGSGSGTEFTLTISSLEPEDFAVYYCMQHLEYPNTFGAGTKLEIK
notes: vs H1L1 (Kabat): VH T57P/K58E/S100cT; VL S27eV/A55N/F96N; also called 4G7 H1.199_L1.146
B9: H1.199 / L1.152 (antibody, V domains shown)
VH: EVQLVESGGGLVKPGGSLKLSCAASGYTFTSYVMHWVRQAPGKGLEWIGYINPYNDGPEYNEKFQGRVTISSDKSISTAYMELSSLRSEDTAMYYCARGTYYYGTRVFDYWGQGTLVTVSS
VL: DIVMTQSPATLSLSPGERATLSCRSSKSLQNVNGNTYLYWFQQKPGQSPQLLIYRMSNLASGVPDRFSGSGSGTEFTLTISSLEPEDFAVYYCMQHLEYPNTFGAGTKLEIK
notes: vs H1L1 (Kabat): VH T57P/K58E/S100cT; VL L27cQ/S27eV/F96N; also called 4G7 H1.199_L1.152
B10: H1.196 / L1.146 (antibody, V domains shown)
VH: EVQLVESGGGLVKPGGSLKLSCAASGYTFTSYVMHWVRQAPGKGLEWIGYINPYNDGPKYNEKFQGRVTISSDKSISTAYMELSSLRSEDTAMYYCARGTYYYGTSVFDYWGQGTLVTVSS
VL: DIVMTQSPATLSLSPGERATLSCRSSKSLLNVNGNTYLYWFQQKPGQSPQLLIYRMSNLNSGVPDRFSGSGSGTEFTLTISSLEPEDFAVYYCMQHLEYPNTFGAGTKLEIK
notes: vs H1L1 (Kabat): VH T57P/S100cT/R100dS; VL S27eV/A55N/F96N; also called 4G7 H1.196_L1.146

What follows are binders tested against T1, human CD19 (assay: binding affinity relative to the parent H1L1 mAb (Example 5); assay and format not named on the sheet).

With B1 as the binder, how does the Fold change binding read?
Its Fold change binding is 4.56 fold.

B2 was tested. Which Fold change binding did it give?
Its Fold change binding is 2.91 fold.

How did the Fold change binding turn out when B3 was run?
Its Fold change binding is 2.98 fold.

How did the Fold change binding turn out when B4 was run?
The Fold change binding was 3.42 fold.

Which Fold change binding does the source give for B5 here?
The Fold change binding was 4.36 fold.

B6 was tested. Which Fold change binding did it give?
The Fold change binding was 4.34 fold.

Which Fold change binding does the source give for B7 here?
Its Fold change binding is 3.63 fold.

For B8, which Fold change binding is on record?
Its Fold change binding is 4.11 fold.

For B9, which Fold change binding is on record?
The Fold change binding was 3.55 fold.

B10 was tested. Which Fold change binding did it give?
The Fold change binding was 3.57 fold.
